The Km is the substrate concentration at which the rate is half of its maximum. Broadly, the kcat is the number of substrate molecules converted per active site and unit of time at saturation. One may read the kcat/Km as the turnover number divided by the Michaelis constant.

Substrate in this series: O=CCCO
As to the kind of experiment: purified protein. Type of series: biochemical, Azospirillum brasilense. As to conditions: 500 μM NAD, 100 mM Tris-HCl pH 8.0, 25 °C, 50 nM enzyme, 0.5-10 mM 3HPA.

B1: AbKGSADH (Azospirillum brasilense; I288T) (protein)
chain: ANVTYTDTQLLIDGEWVDAASGKTIDVVNPATGKPIGRVAHAGIADLDRALAAAQSGFEAWRKVPAHERAATMRKAAALVRERADAIAQLMTQEQGKPLTEARVEVLSAADIIEWFADEGRRVYGRIVPPRNLGAQQTVVKEPVGPVAAFTPWNFPVNQVVRKLSAALATGCSFLVKAPEETPASPAALLRAFVDAGVPAGVIGLVYGDPAEISSYLIPHPVIRKVTFTGSTPVGKQLASLAGLHMKRATMELGGHAPVIVAEDADVALAVKAAGGAKFRNAGQVCTSPTRFLVHNSIRDEFTRALVKHAEGLKVGNGLEEGTTLGALANPRRLTAMASVIDNARKVGASIETGGERIGSEGNFFAPTVIANVPLDADVFNNEPFGPVAAIRGFDKLEEAIAEANRLPFGLAGYAFTRSFANVHLLTQRLEVGMLWINQPATPWPEMPFGGVKDSGYGSEGGPEALEPYLVTKSVTVMAV
As for B1, the Km is recorded as 4.593 ± 2.814 mM, the kcat was 6.12 ± 1.69 s⁻¹ and the kcat/Km was 1330 M⁻¹ s⁻¹.

These data come from article PMC9628839, “Structure Based Protein Engineering of Aldehyde Dehydrogenase from Azospirillum brasilense to Enhance Enzyme Activity against Unnatural 3-Hydroxypropionaldehyde” (Journal of Microbiology and Biotechnology, 2021).
